Measured values reported in patent US20220332804A1 (CSL INNOVATION, published 2022).

Columns and labels:
Test in all cases: SPR, mAb captured, C2 mutant analyte;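 further: Anti-C2 mAbs captured on goat anti-human IgG Biacore CM5 chips, alanine or serine C2 surface mutants flowed over at 37 °C, double-referenced sensorgrams fitted to a 1:1 binding model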
human C2 V418A = biological target: T1, human C2 V418A (human, UniProt P06681 21-752)
T1 sequence: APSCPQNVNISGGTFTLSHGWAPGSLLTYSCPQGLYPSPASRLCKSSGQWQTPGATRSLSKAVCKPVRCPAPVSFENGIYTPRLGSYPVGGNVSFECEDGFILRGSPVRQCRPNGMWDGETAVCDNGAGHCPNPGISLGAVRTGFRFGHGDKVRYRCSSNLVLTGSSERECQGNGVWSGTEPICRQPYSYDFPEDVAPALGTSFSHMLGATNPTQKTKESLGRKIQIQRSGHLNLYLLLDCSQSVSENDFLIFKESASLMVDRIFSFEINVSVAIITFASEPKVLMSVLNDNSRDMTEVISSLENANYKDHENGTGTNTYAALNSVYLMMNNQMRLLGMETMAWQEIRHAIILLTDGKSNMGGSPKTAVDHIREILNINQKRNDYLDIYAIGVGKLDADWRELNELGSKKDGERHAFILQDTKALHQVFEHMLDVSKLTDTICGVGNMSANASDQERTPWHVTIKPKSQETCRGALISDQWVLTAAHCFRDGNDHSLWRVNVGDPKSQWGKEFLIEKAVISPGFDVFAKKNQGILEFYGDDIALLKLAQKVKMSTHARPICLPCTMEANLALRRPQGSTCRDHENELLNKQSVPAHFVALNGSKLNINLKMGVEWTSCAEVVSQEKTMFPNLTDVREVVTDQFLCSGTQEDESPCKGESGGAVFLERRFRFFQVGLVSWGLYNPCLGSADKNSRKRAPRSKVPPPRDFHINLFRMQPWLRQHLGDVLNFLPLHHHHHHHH

human C2 N424A = biological target: T2, human C2 N424A (human, UniProt P06681 21-752)
T2 sequence: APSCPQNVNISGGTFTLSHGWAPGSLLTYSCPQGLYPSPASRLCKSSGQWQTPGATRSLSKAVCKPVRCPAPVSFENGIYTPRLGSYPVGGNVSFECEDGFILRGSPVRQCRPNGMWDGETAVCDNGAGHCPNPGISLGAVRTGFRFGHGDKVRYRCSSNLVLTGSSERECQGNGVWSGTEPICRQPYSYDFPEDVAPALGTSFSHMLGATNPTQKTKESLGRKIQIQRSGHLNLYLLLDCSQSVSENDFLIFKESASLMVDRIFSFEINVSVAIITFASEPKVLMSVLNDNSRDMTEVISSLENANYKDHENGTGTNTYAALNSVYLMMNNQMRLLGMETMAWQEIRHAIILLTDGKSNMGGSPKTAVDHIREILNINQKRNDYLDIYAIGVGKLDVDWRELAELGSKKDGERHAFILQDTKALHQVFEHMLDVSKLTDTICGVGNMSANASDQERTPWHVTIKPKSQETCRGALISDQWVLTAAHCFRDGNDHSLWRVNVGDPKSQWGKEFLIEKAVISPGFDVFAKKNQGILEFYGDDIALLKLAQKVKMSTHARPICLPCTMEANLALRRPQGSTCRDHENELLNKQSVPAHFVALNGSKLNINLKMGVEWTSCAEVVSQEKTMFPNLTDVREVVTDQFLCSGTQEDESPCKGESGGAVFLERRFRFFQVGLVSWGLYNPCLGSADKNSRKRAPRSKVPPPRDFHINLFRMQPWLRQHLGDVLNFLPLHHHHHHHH

human C2 L439A = biological target: T3, human C2 L439A (human, UniProt P06681 21-752)
T3 sequence: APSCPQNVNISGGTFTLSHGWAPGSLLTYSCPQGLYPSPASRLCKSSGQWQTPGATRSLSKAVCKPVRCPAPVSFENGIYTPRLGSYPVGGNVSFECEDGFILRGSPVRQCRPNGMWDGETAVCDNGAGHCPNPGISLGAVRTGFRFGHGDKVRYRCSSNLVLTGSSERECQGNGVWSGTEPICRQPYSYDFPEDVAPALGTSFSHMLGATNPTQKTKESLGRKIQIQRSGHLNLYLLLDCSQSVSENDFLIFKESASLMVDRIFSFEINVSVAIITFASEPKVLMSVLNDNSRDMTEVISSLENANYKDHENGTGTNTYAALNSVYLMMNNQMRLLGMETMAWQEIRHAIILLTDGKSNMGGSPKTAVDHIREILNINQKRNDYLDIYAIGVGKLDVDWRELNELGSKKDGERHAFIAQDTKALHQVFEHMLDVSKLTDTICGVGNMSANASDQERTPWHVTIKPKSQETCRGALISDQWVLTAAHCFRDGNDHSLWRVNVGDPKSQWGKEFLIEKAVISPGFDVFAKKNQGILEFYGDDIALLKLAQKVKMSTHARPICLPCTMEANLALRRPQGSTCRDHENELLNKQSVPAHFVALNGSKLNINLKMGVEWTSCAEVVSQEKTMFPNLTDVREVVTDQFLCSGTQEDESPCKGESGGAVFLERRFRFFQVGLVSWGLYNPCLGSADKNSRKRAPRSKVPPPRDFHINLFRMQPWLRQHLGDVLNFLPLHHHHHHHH

human C2 A444S = biological target: T4, human C2 A444S (human, UniProt P06681 21-752)
T4 sequence: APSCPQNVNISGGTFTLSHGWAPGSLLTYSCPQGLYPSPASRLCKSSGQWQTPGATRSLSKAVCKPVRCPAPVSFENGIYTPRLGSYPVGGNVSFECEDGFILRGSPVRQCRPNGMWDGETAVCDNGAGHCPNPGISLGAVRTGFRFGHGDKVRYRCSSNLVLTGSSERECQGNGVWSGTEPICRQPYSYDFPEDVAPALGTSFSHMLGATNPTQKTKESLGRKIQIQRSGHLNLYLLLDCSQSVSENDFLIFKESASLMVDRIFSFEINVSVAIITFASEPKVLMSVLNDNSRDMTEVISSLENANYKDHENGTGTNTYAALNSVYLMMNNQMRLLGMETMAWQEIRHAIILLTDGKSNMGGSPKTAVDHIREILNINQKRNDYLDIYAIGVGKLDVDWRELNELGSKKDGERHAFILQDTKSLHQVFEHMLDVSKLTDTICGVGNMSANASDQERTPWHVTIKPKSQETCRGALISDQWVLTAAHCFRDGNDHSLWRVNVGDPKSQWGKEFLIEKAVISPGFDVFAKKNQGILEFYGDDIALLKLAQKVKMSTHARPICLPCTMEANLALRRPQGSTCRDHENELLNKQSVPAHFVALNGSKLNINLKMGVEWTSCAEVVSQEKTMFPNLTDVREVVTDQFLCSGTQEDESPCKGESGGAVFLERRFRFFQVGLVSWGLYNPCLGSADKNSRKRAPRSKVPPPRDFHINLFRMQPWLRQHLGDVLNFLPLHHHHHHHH

Kd (human C2 V418A): 15.6 nM | Kd (human C2 N424A): 16.1 nM | Kd (human C2 L439A): 1320 nM | Kd (human C2 A444S): 20.7 nM
B1: RF16-214 (antibody, V domains shown)
VH: EVQLLESGGGLVQPGGSLRLSCAASGFTFSWYQMMWVRQAPGKGLEWVSRIYPSGGGTAYADSVKGRFTISRDNSKNTLYLQMNSLRAEDTAVYYCARDAGYGDNWGQGTLVTVSS
VL: QSALTQPPSVSVSPGQTASITCSGDKLGEKYASWYQQKAGQSPVMVIYQDRKRPSGIPERFSGSNSGNTATLTISGTQAMDEADYYCQAWDTRAVVFGGGTKLTVLG
